This note sets out measurements from patent publication CN115490771A (HEFEI TIANGANG IMMUNOLOGY PHARMACEUTICAL CO LTD, dated 2022).

Assay [1] has as its target T1, CD155蛋白 on CHO-K1-CD155 cells (Homo sapiens (Human), UniProt P15151 21-417).
T1 construct: also called CHO-K1-CD155细胞
T1 sequence: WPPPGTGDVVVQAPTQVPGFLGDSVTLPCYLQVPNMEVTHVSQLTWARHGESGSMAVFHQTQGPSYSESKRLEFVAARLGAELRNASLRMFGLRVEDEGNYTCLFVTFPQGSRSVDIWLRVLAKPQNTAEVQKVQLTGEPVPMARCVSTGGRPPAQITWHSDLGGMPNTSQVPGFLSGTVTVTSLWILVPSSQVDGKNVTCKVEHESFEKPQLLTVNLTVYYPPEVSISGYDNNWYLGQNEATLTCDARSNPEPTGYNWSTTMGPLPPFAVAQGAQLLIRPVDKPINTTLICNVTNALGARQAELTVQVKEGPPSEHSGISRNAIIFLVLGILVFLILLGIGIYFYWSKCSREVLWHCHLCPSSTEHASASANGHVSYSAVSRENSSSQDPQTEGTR
Description: flow cytometry on CHO-K1-CD155 cells, Alexa-647 anti-human Fc secondary antibody.

In assay [2] the target is T2, CD155 on tumour cells (NCI-H1299, NCI-H358, HepG2) (UniProt P15151 21-417, limits assumed).
T2 construct: whole, on cells; also called 表达CD155的肺癌NCI-H1299细胞; NCI-H358细胞
T2 sequence (looked up): T1 sequence
Description: flow cytometry on NCI-H1299 lung cancer cells, Alexa-647 anti-human Fc secondary antibody. (In flow cytometry, cells or beads pass a laser one at a time.)

B1: 双特异抗体 CD3×TIGIT extra (重组双特异抗体, 实施例1) (bispecific antibody, IgG1)
chain 1: EVQLLESGGGLVQPGGSLKLSCAASGFTFNTYAMNWVRQAPGKGLEWVARIRSKYNNYATYYADSVKDRFTISRDDSKNTAYLQMNNLKTEDTAVYYCVRHGNFGNSYVSWFAYWGQGTLVTVSSGGGGSGGGGSGGGGSELVVTQEPSLTVSPGGTVTLTCRSSTGAVTTSNYANWVQQKPGQAPRGLIGGTNKRAPGTPARFSGSLLGGKAALTLSGVQPEDEAEYYCALWYSNLWVFGGGTKLTVLGGGGSPKSCDKTHTCPPCPAPEAAGGPSVFLFPPKPKDTLMISRTPEVTCVVVDVSHEDPEVKFNWYVDGVEVHNAKTKPREEQYNSTYRVVSVLTVLHQDWLNGKEYKCKVSNKALPAPIEKTISKAKGQPREPQVYTLPPSREEMTKNQVSLWCLVKGFYPSDIAVEWESNGQPENNYKTTPPVLDSDGSFFLYSKLTVDKSRWQQGNVFSCSVMHEALHNHYTQKSLSLSPGK
chain 2: MMTGTIETTGNISAEKGGSIILQCHLSSTTAQVTQVNWEQQDQLLAICNADLGWHISPSFKDRVAPGPGLGLTLQSLTVNDTGEYFCIYHTYPDGTYTGRIFLEVLESSVAEHGARFQIPGGGGSPKSCDKTHTCPPCPAPEAAGGPSVFLFPPKPKDTLMISRTPEVTCVVVDVSHEDPEVKFNWYVDGVEVHNAKTKPREEQYNSTYRVVSVLTVLHQDWLNGKEYKCKVSNKALPAPIEKTISKAKGQPREPQVYTLPPSREEMTKNQVSLSCAVKGFYPSDIAVEWESNGQPENNYKTTPPVLDSDGSFFLVSKLTVDKSRWQQGNVFSCSVMHEALHNHYTQKSLSLSPGK
notes: Two-chain heterodimer joined through knob-into-hole IgG1 Fc regions; also called 双特异性抗体; 重组抗体
With B1, the binding result in assay [1] and in assay [2] was “binds” throughout.
